Target: human neuronal calcium channel α1B-1α2bβ1-2 (human)
Experiment: ω-CgTx binding to transiently transfected HEK293 cells (plasmid ratio 2:1.8:1)

For “ω-CgTx GVIA (from UniProt P01522 46-72) (peptide)”, the Kd was 0.0546 nM and the binding capacity (Bmax) (sites per cell) was 28700.

— patent US7063950
